Here are results for 1 protein from paper PMC7463553, “Thiol Redox Regulation of Plant β-Carbonic Anhydrase” (Biomolecules, 2020).

One may read the stoichiometry N as a count of units in the complex or per binding partner.

The series concerns the molecule itself. Briefly: dynamic light scattering; 320 µM βCA1 after addition of 20 mM DTT or in the presence of 500 µM H2O2; 50 mM Na-phosphate pH 8; 25 °C; intensity converted to volume percentage.

B1: β-carbonic anhydrase 1 (βCA1) from Arabidopsis thaliana (enzyme, UniProt P27140 114-347, looked up)
chain: ALQTGTSSDKKAFDPVETIKQGFIKFKKEKYETNPALYGELAKGQSPKYMVFACSDSRVCPSHVLDFQPGDAFVVRNIANMVPPFDKVKYGGVGAAIEYAVLHLKVENIVVIGHSACGGIKGLMSFPLDGNNSTDFIEDWVKICLPAKSKVISELGDSAFEDQCGRCEREAVNVSLANLLTYPFVREGLVKGTLALKGGYYDFVKGAFELWGLEFGLSETSSVKDVATILHWKL
notes: β-carbonic anhydrase 1 (βCA1, βCA1.1), Arabidopsis thaliana, UniProt P27140, At3g01500; The protein was analysed both reduced (DTT) and oxidised (H2O2); also called βCA1.1; chloroplast βCA; source: E. coli NiCo21 (DE3), purified (passage through a chitin column, Ni-NTA beads, dialysis)
Regarding B1, the “stoichiometry N” value came to 2.
